According to patent US20030113828A1, “Compositions and methods for modulating Syk function” (priority 2001, published 2003):
Values belong to the molecule of their own block, whether it stands above or below them.

Target: T1, integrin β3 cytoplasmic tail (Homo sapiens, UniProt P05106)
T1 construct: made in house
T1 sequence (P05106 742-788 limits assumed): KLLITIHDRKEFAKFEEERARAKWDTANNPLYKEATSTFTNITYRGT
Assay: Affinity chromatography/direct binding of kinase fragments to integrin tail
Conditions: recombinant fragments, direct binding assay
Experimental: Following incubation, beads were washed and bound protein was analyzed by immunoblotting.
For direct binding assays, model peptides (1 mg) were dissolved in 1 ml buffer containing 20 mM Tris (pH 7.9), 500 mM NaCl, and 6 M urea. To this, 50 ul packed His-Bind® Resin (Novagen, Madison, Wis.) was added and the mixture was rotated for 1 hour at room temperature. Immobilized peptides were washed 5× in above buffer without urea, and resuspended in 500 μl buffer containing 20 mM PIPES pH 6.8, 50 mM NaCl, 3 mM MgCl2, 150 mM sucrose, 50 mM NaF, 40 mM Na4P2O7*10H2O (buffer A) supplemented with 0.1% TritonX-100 and 3 mM MgCl2. Purified GST-fusion proteins were added to 0.5 ml buffer A supplemented with 0.1% TritonX-100 and 3 mM MgCl2. Five μl of total packed resin loaded with various integrin cytoplasmic domain model proteins was added to the GST-fusion protein. The mixture was incubated for 40 minutes at room temperature with continuous rotation. The beads were then washed five times in buffer A with 0.1% TritonX-100 and 3 mM MgCl2. Bound proteins were eluted by boiling in reducing sample buffer, fractionated by SDS PAGE, and immuno-blotted.

binding to the β3 tail: bound
B1: Zap-70(1-337): Zap-70 fragment containing both SH2 and interdomains A and B (protein)
chain: MPDPAAHLPFFYGSISRAEAEEHLKLAGMADGLFLLRQCLRSLGGYVLSLVHDVRFHHFPIERQLNGTYAIAGGKAHCGPAELCEFYSRDPDGLPCNLRKPCNRPSGLEPQPGVFDCLRDAMVRDYVRQTWKLEGEALEQAIISQAPQVEKLIATTAHERMPWYHSSLTREEAERKLYSGAQTDGKFLLRPRKEQGTYALSLIYGKTVYHYLISQDKAGKYCIPEGTKFDTLWQLVEYLKLKADGLIYCLKEACPNSSASNASGAAAPTLPAHPSTLTHPQRRIDTLNSDGYTPEPARITSPDKPRPMPMDTSVYESPYSDPEELKDKKLFLKRDNL
modifications: left off: a dimerising Fc or GST
notes: Zap-70 fragment containing both SH2 and interdomains A and B

binding to the β3 tail: decrease in binding
B2: Zap-70(1-132): Zap-70 truncation lacking the C-terminal half of interdomain A (protein)
chain: MPDPAAHLPFFYGSISRAEAEEHLKLAGMADGLFLLRQCLRSLGGYVLSLVHDVRFHHFPIERQLNGTYAIAGGKAHCGPAELCEFYSRDPDGLPCNLRKPCNRPSGLEPQPGVFDCLRDAMVRDYVRQTWK
